Test results: patent publication US7037670B2, “Peptide substrates for assay of extracellular signal-regulated protein kinase 1 and 2 activity” (Board of Supervisors of Louisiana State University and …, priority 2002, dated 2006)

What was measured:
ERK2 [1] = target: T1, ERK2 (Rattus norvegicus, UniProt P63086); test: Phosphorylation of TH Ser31-containing peptides by purified, recombinant, activated ERK2; format: biochemical; conditions: substrate 1 mM, median of three determinations
Excerpt: Materials: Purified peptides were obtained from Sigma (St. Louis, Mo.) or custom synthesized by Louisiana State University Health Science Center Core Laboratories (New Orleans La.). Purified, activated ERK1 was a gift from Dr. M. H. Cobb (University of Texas Southwestern Medical Center, Dallas, Tex.). Purified, recombinant, activated ERK2 was a gift from Dr. N. G. Ahn (University of Colorado, Boulder, Colo.). Except as indicated below, other materials were purchased from Sigma. The new synthetic peptides modeled after […] in human tyrosine hydroxylase are indicated. ERK activity assays: Aliquots of supernatants or ERK1/2 immunoprecipitates (suspended in lysis solution) were mixed with substrate (1 mM final, unless stated otherwise) at 4° C. Phosphorylation reactions were initiated by addition of an equal volume of assay buffer containing [γ-^32P]ATP (NEN Life Sciences Products, now PerkinElmer Life Sciences, Boston, Mass.) and Mg^++ and allowed to proceed for 10 min at 30° C., after which duplicate 20 μl aliquots were spotted onto Whatman P81 paper. As would be predicted by the presence of multiple basic residues in the peptides, the ability of P81 paper to bind >90% of each of the peptides used in Tables 2 and 3 was confirmed by UV detection following RP-HPLC. The final reaction mixtures (50 μl) contained 50 mM β-glycerophosphate, 10 mM MgCl2, 1 mM EGTA, 1 mM dithiothreitol, 1 mM benzamidine, 0.1 mM ATP, 0.1 mM Na3VO4, 10 μM calmidazolium, 2 μM peptide inhibitor of cyclic AMP-dependent protein kinase ([…] ID NO: 24), 10 μg/ml leupeptin, and 0.025% Tween 20. Table 3 indicates the relative phosphorylation of TH-[…]-containing peptides by purified ERK2. […] These new substrates were assayed for the relative phosphorylation by purified ERK2 similar to the experiments that generated Table 3.

ERK2 [2] = target: T1, ERK2; test: Steady-state kinetic analyses of peptide substrates for ERK2; format: biochemical; conditions: for Kmin(app) / Vmax(app) Relative: median of three determinations; for Vmax(app) Relative: relative values
Description: (§1) ERK activity assays: Aliquots of supernatants or ERK1/2 immunoprecipitates (suspended in lysis solution) were mixed with substrate (1 mM final, unless stated otherwise) at 4° C. Phosphorylation reactions were initiated by addition of an equal volume of assay buffer containing [γ-^32P]ATP (NEN Life Sciences Products, now PerkinElmer Life Sciences, Boston, Mass.) and Mg^++ and allowed to proceed for 10 min at 30° C., after which duplicate 20 μl aliquots were spotted onto Whatman P81 paper. As would be predicted by the presence of multiple basic residues in the peptides, the ability of P81 paper to bind >90% of each of the peptides used in Tables 2 and 3 was confirmed by UV detection following RP-HPLC. The final reaction mixtures (50 μl) contained 50 mM β-glycerophosphate, 10 mM MgCl2, 1 mM EGTA, 1 mM dithiothreitol, 1 mM benzamidine, 0.1 mM ATP, 0.1 mM Na3VO4, 10 μM calmidazolium, 2 μM peptide inhibitor of cyclic AMP-dependent protein kinase ([…], SEQ ID NO: 24), 10 μg/ml leupeptin, and 0.025% Tween 20.
In Table 5, each value represents the median of three independent determinations, performed in duplicate. […] See I. Kameshita et al., 1997. […] 355, pp. 5641-5646 (1996); see also C. N. Prowse et al., “Catalytic reaction pathway for the mitogen-activated protein kinase ERK2,” Biochem., vol. 39, pp. 6258-6266 (2000).

ERK1 = ERK1 (Rattus norvegicus, UniProt P21708); test: Phosphorylation of substrates by purified, activated ERK1 (32P incorporation, P81 paper); format: biochemical; conditions: for RELATIVE 32P INCORPORATION (% OF MBP): peptides 1 mM, MBP 20 μM, 10 min at 30° C., median of three determinations
Excerpt: Materials: Purified peptides were obtained from Sigma (St. Louis, Mo.) or custom synthesized by Louisiana State University Health Science Center Core Laboratories (New Orleans La.). Purified, activated ERK1 was a gift from Dr. M. H. Cobb (University of Texas Southwestern Medical Center, Dallas, Tex.). Purified, recombinant, activated ERK2 was a gift from Dr. N. G. Ahn (University of Colorado, Boulder, Colo.). Except as indicated below, other materials were purchased from Sigma. The new synthetic peptides modeled after Ser31 in human tyrosine hydroxylase are indicated.
as §1
To test the effectiveness of various peptide substrates, peptide substrates were compared with myelin basic protein (“MBP,” SEQ ED NO: 1) for relative ability to be phosphorylated by purified ERK1 or ERK2. The ERK activity assay was as described above in Example 1. In Table 2, each value represents the median of three independent determinations, performed in duplicate. While all peptides were assayed at a concentration of 1 mM, MBP phosphorylation—given as a frame of reference at a concentration typically used in such assays—was assayed at 20 μM. ^32P incorporation into MBPtide (SEQ ID NO: 2) was 330 nmol/min/mg under the assay conditions used.

ERK1/2 = test: In vitro kinase assay on PC12 cellular extracts with no further purification (with and without nerve growth factor); format: biochemical, rat; conditions: for pattern and degree of ERK activation over time compared with ERK immunoprecipitation and blot immunolabeling assays: PC12 cells with and without NGF, up to 480 min, extracts without purification
Description: Cells were treated with or without added 100 ng/ml 7S nerve growth factor for up to 8 h. One group of cells was harvested for blot immunolabeling and solubilized with sodium dodecyl sulfate solution, as described in J. W. Haycock, “Multiple forms of tyrosine hydroxylase in human neuroblastoma cells: Quantitation with isoform-specific antibodies,” J. Neurochem., vol. […] A second group of cells was harvested for kinase assays and subjected to trituration in an ice-cold lysis solution of 50 mM β-glycerophosphate, 1 mM EGTA, 1 mM dithiothreitol, 1 mM benzamidine (Eastman Kodak Co., Rochester, N.Y.), 0.1 mM Na3VO4, 10 μg/ml leupeptin, and 0.05% Tween 20. Supernatants from the latter samples were generated by sonication and centrifugation (20 min at 10,000×g) in a refrigerated centrifuge (Savant, Farmingdale, N.J.). In some experiments, ERK1/2 was isolated prior to assaying kinase activity by immunoprecipitation of the PC12 cellular extracts with anti-pan ERK1/2 and protein A-Sepharose. […] ERK activity assays: Aliquots of supernatants or ERK1/2 immunoprecipitates (suspended in lysis solution) were mixed with substrate (1 mM final, unless stated otherwise) at 4° C. Phosphorylation reactions were initiated by addition of an equal volume of assay buffer containing [γ-^32P]ATP (NEN Life Sciences Products, now PerkinElmer Life Sciences, Boston, Mass.) and Mg^++ and allowed to proceed for 10 min at 30° C., after which duplicate 20 μl aliquots were spotted onto Whatman P81 paper. […] Experiments were conducted to test the ability of different substrates to assay for activation of ERK1/2 in situ. […] Cells were harvested and-assayed for ERK1/2 activity by various methods.

MAP kinase = conditions: reported, Kameshita et al., 1997; cited from earlier work
ERK2 [3] = target: T1, ERK2; conditions: described previously by Robinson et al., 1996; cited from earlier work

T1 sequence (P63086 2-358 limits assumed): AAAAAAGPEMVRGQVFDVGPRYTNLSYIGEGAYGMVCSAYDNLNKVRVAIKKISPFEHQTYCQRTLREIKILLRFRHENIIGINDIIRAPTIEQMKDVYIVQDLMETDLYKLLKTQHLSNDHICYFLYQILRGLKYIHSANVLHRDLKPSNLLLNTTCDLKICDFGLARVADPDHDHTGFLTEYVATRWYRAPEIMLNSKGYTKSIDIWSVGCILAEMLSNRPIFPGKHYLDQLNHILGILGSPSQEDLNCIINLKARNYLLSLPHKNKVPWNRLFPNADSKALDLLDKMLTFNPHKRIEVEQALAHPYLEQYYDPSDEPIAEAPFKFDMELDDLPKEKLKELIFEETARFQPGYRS
Sequence of ERK1 (P21708 2-380 limits assumed): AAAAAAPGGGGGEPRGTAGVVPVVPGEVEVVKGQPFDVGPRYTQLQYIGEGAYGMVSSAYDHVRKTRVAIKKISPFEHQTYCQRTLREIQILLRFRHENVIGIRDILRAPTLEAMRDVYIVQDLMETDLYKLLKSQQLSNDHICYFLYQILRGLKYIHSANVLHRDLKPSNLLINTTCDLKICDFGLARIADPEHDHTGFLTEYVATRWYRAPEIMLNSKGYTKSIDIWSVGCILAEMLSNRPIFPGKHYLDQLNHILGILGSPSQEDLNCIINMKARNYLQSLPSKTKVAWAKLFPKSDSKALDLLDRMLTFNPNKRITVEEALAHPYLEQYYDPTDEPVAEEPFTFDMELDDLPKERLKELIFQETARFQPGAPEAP

RELATIVE 32P INCORPORATION (% 3.3 μmol/min/mg) (ERK2 [1]) | Kmin(app) (ERK2 [2]) | Vmax(app) Relative (ERK2 [2]) | Sequence | further results
29 % 3.3 μmol/min/mg | – | – | AIMSPRFIGRR (This sequence is based on TH-31 type 1 HUMAN.) [SEQ ID NO: 11] | –
– | 0.6 mM | 82 | ATGPLSPGPFGRR (ATGPLSPFGRR; This sequence is ERKtide.) [SEQ ID NO: 23] | apparent Vmax (ERK2 [2]): 9.4 µmol/min/mg; pattern and degree of ERK activation over time compared with ERK immunoprecipitation and blot immunolabeling assays (ERK1/2): faithfully reproduced; Km (ERK2 [3]): 450 µM
9 % 3.3 μmol/min/mg | – | – | AVTSPRFIGRR (This sequence is based on TH-Ser31 (rat).) [SEQ ID NO: 8] | –
41 % 3.3 μmol/min/mg | – | – | EAIMSPRFIGRR (This sequence is based on TH-31 type 1 HUMAN.) [SEQ ID NO: 12] | –
21 % 3.3 μmol/min/mg | 1.4 mM | 42 | EAIMSPRFK (This sequence is based on TH-31 type 1 HUMAN.) [SEQ ID NO: 10] | –
2 % 3.3 μmol/min/mg | – | – | EAIMVRGQSPRFK (This sequence is based on TH-Ser31 type 2 HUMAN.) [SEQ ID NO: 22] | –
20 % 3.3 μmol/min/mg | – | – | EAVTSPRFIGRR (This sequence is based on TH-Ser31 (rat).) [SEQ ID NO: 9] | –
– | – | – | GRRQSLIEDAR (This sequence is TH (rat) Ser40.) [SEQ ID NO: 6] | RELATIVE 32P INCORPORATION (% OF MBP) (ERK1): <1 % OF MBP
1 % 3.3 μmol/min/mg | – | – | IMVRGQSPR (This sequence is based on TH-Ser31 type 2 HUMAN.) [SEQ ID NO: 20] | –
7 % 3.3 μmol/min/mg | 1.8 mM | 9 | KQAEAVTSPR (This sequence is based on TH-Ser31 (rat).) [SEQ ID NO: 7] | RELATIVE 32P INCORPORATION (% OF MBP) (ERK1): 5 % OF MBP

Sequence | RELATIVE 32P INCORPORATION (% 3.3 μmol/min/mg) (ERK2 [1]) | Kmin(app) (ERK2 [2]) | Vmax(app) Relative (ERK2 [2]) | further results
APRTPGGRR (This sequence is MBPtide (Thr 97).) [SEQ ID NO: 2] | – | 2.0 mM | 46 | 32P incorporation (ERK1; peptide 1 mM, assay conditions of Table 2): 330 nmol/min/mg; RELATIVE 32P INCORPORATION (% OF MBP) (ERK1): 28 % OF MBP; pattern and degree of ERK activation over time compared with ERK immunoprecipitation and blot immunolabeling assays (ERK1/2): differed; levels of protein kinase activity in cellular extracts (ERK1/2; PC12 extracts, no kinase purification, EGTA, calmidazolium, cAMP-dependent protein kinase inhibitor present): Higher levels of protein kinase activity; Km (MAP kinase): 1600 µM
